Results from EP0622394A1, “Reversible modification of sulfur-containing molecules with polyalkylene glycol derivatives and their use” (S.A. LABORATOIRES S.M.B., priority 1993, dated 1994).

How the values were obtained:
[1] = Infrared spectroscopy (Fourier self-deconvolution, curve fitting of the amide I region): content of secondary structures; assay type: physicochemical; conditions: FTIR amide I region; counter-ions K+ and Cl-; pH 5.0
Description: Spectra were recorded with a Perkin-Elmer infrared spectrometer 983 G equipped with a Perkin-Elmer microspecular reflectance accessory (ref. P.E. 221-0357). The internal reflection element was a Germanium ATR plate (50 x 20 x 2 mm, Harrick EJ 2121) with an aperture angle of 45° yielding 25 […] reflections. The mean stan rate was 15.5 cm⁻¹/minute and up to 20 accumulations were performed when necessary to improve the signal to noise ratio. The spectrophotometer was continuously purged with air dried on a silica gel column (5 x 130 cm) at a flow rate of 7 l/minute. Spectra were recorded at a nominal resolution of 2 cm⁻¹ and encoded every 0.5 cm⁻¹. At the end of the scan, they are transferred from the memory of the spectrophotometer to an Olivetti M 40 itself coupled to an Olivetti M 24 computer Spectra were Fourier transformed and stored for subsequent treatments.
In both cases the S-pegylated protein eluted from the CM-Sephadex C-50 before the irreversibly oxidized material. […] Indeed : 1. […] The proportions of the different secondary structures were determined, as previously described by Cabiaux et al, 1989, J. Biol. Chem., 264:4928-4938, using the frequency regions for the different structures as follows : 1661-1647 cm⁻¹ : α-helix; 1689-1682 + 1637-1615 cm⁻¹ : β-sheet; 1644.5-1637.7 cm⁻¹ : random and 1682-1661 cm⁻¹ : β-turn. […]

[2] = Acid denaturation: residual amidase activity after incubation in acidic buffer; assay type: physicochemical; conditions: 40 µM proteinase, 25°C
Description: Indeed : • 1. […] Similar results were obtained in the case of papain.
Time course dependence of acid denaturation of S-methylthio PP III (---) and S-pegyl (5000) thio PP III (―) at various pH and at 25°C.
At various time intervals, aliquot were removed and assayed for residual amidase activity using the assay method N° 3.

Molecule	PERCENTAGE OF Random [1]	PERCENTAGE OF α-Helix [1]	PERCENTAGE OF β-Sheet [1]	PERCENTAGE OF β-Turns [1]	lowest pH at which solutions remain stable (acid denaturation) [2]
S-Pegylated Papaya Pectinase III: papaya proteinase III S-pegylated with PEG 5 kDa disulfide derivative	8.3	27.9	36.1	27.7	2.6
S-Pegylated papain: papain modified at its thiol with a 5 kDa PEG chain through a disulfide bond (conjugate, UniProt P00784 134-345, looked up, S-PEG 5 kDa, papain modified at its thiol with a 5 kDa PEG chain through a disulfide bond) Papain: IPEYVDWRQKGAVTPVKNQGSCGSCWAFSAVVTIEGIIKIRTGNLNEYSEQELLDCDRRSYGCNGGYPWSALQLVAQYGIHYRNTYPYEGVQRYCRSREKGPYAAKTDGVRQVQPYNEGALLYSIANQPVSVVLEAAGKDFQLYRGGIFVGPCGNKVDHAVAAVGYGPNYILIKNSWGTGWGENGYIRIKRGTGNSYGVCGLYTSSFYPVKN	8.2	28.2		27.0	
